{"source": "patent US20100233157A1", "about": "(published 2010)", "binders": {"B1": {"name": "F45D9-γ1 mAb (recombinant human mAb T17/B2-1G4, gamma-1 isotype) (antibody, V domains shown)", "VH": "QVQLQQWGAGLLKPSETLSLICAVYGGSFSTYYWTWIRQPPGKGLEWIGEINHRGTTNYSPSLKSRVTISVDTSKNHISLNLTSVTAADTALYYCARGLLWIGEGDYGLDVWGQGTTVTVSS", "VL": "DIQMTQSPSSLSASVGDRVTITCRASQGIRRWLAWYQQKPEKAPKSLIYAASSLQSGVPSRFSGSGSGTDFTLTISSLQPEDFATYYCQQYNSYPYTFGQGTKLEIKR", "notes": "Whole human IgG1 (γ1fa allotype) with human kappa light chain, made in CHO DG44 cells; also called IgG1; T17/L18/B2-1G4"}}, "key": {"[1]": {"target": "T1, Mouse Fas on the cell surface (mouse, UniProt P25446 22-327)", "T1 construct": "whole, on cells; also called Fas on peripheral blood lymphocytes of BALB/c mice", "T1 sequence (looked up)": "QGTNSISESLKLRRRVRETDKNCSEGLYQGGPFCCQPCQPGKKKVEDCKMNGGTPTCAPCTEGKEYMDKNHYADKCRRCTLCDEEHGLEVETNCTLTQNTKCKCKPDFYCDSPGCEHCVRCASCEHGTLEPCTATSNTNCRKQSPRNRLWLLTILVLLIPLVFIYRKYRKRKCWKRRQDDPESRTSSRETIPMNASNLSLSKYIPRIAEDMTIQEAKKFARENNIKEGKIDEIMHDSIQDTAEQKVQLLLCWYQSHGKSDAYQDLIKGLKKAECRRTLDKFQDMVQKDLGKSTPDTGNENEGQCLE", "assay": "flow cytometry histograms (FL1-H) on mouse PBL, FITC anti-human kappa secondary", "source_text": "(§1) Reactivity of F45D9-γ1 or F45D9-γ4 mAb with Fas molecules of various species was initially screened using primary blood cells or lymphocytes cell lines. The binding of F45D9-γ1 or F45D9-γ4 mAb was explored by immunofluoresce staining and flow cytometry analysis, in human PBMC, purified human resting T cells, activated human T cells, peripheral blood lymphocytes (PBL) derived from BALE/c mice, rat, dog and pig, and in B cell lines or PBL derived from common marmoset, cynomolgus macaque, olive baboon, rhesus macaque and chimpanzee. Resting and activated human T cells were prepared as described in Example 7. B cells lines from monkeys were obtained from Biomedical Primate Research Center (Rijswijk, The Netherlands), and were cultured in RPMI 1640 medium supplemented with 2 mM glutamax, 100 UI/mL penicillin, 100 μg/mL streptomycin and 10% fetal bovine serum, at 37° C. and 5% CO₂. After washing in PBS cells (0.2−0.4×10⁶ cells/well) were incubated in staining buffer (PBS/1% FBS) containing F45D9-γ1 or human IgG control antibodies (10-20 ug/ml) in a 96-well U-bottom plate for 30 min on ice, in a 100 ul/well volume. Cells were then washed once with staining buffer, and further incubated for 30 min on ice with 1:30 dilution of FITC-conjugated rabbit F(ab′)₂ anti-human kappa (DakoCytomation Cat. F0434) or FITC-conjugated rabbit F(ab′)₂ anti-human IgG (DakoCytomation Cat. F0056). […]"}, "[2]": {"target": "T2, Human Fas (CD95) on the cell surface (human, UniProt P25445 26-335)", "T2 sequence": "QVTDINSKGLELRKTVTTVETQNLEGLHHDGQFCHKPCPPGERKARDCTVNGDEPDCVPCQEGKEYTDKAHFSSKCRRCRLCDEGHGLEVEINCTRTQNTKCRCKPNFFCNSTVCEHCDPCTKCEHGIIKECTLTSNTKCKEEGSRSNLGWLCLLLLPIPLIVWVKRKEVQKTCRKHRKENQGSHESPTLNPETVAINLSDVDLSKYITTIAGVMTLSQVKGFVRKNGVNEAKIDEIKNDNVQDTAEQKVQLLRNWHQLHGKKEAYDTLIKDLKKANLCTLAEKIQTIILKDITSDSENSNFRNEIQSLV", "assay": "cell-based or functional assay"}, "[3]": {"target": "T3, Recombinant human soluble Fas receptor (PeproTech, Cat. 310-20) (human, UniProt P25445 17-173)", "T3 construct": "Bought soluble form; also called sFas; rFas", "T3 sequence (looked up)": "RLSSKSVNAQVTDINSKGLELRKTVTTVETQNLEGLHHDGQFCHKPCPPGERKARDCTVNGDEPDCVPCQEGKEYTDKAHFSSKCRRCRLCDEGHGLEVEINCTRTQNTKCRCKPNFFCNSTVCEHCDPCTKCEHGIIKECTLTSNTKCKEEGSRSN", "assay": "SPR (BIAcore 3000), soluble Fas immobilized on CM5 chip, antibody as analyte, bivalent analyte fit", "method": "The interaction of F45D9 mAb's (γ-γ1 and γ4-isotypes) with immobilized soluble human Fas receptor was monitored by surface plasmon resonance detection using a BIAcore 3000 instrument. Recombinant human soluble Fas receptor (srFas) (PeproTech, cat. 310-20) was immobilized (concentration of 5 ug/ml in immobilization buffer: 10 mM sodium acetate pH 5.0) onto a CM5 sensor chip (BIAcore BR-1001-14) using an Amine Coupling kit (BIAcore, Cat. BR-1000-50), at a surface density of […] resonance units (RU). Deactivation of excess reactive groups on the chip surface was done by adding 1.0 M ethalonamine hydrochloride (pH 8.5). F45D9 mAb's-γ1 mAb were passed over the surface in equilibrium binding experiments at concentrations ranging from […] at a flow rate of 30 ul/min. Dilutions and binding experiments were conducted in 0.01 M HEPES (pH 7.4), 0.15 M NaCl, 3 mM EDTA, and 0.005% P-20 (BIAcore surfactant, BR-1001-88). Between each cycle 100 mM HCl was used to regenerate the surfaces at a flow rate 30 ul/min. KA and KD of F45D9 mAb's were-γ1 mAb was determined by fitting bivalentusing BIAcore models (BIAevaluation)."}, "[4]": {"target": "T4, Rhesus macaque Fas on the cell surface (rhesus macaque, UniProt Q9BDP2 26-333)", "T4 construct": "whole, on cells", "T4 sequence (looked up)": "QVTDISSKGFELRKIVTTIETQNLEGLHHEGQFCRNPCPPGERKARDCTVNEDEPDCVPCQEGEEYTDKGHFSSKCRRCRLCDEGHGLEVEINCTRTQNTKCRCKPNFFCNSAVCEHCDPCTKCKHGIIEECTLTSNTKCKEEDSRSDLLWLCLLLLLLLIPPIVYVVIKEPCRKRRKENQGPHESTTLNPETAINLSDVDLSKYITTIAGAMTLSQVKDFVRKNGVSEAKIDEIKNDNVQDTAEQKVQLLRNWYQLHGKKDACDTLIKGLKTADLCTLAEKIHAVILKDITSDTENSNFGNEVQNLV", "assay": "flow cytometry histograms (FL1-H) on rhesus macaque cells (cell type not printed on the sheet), FITC anti-human kappa or FITC anti-human IgG secondary", "source_text": "as §1"}, "[5]": {"target": "T2, Human Fas (CD95) on the cell surface", "assay": "flow cytometry on the human B cell line SKW6.4, FITC anti-human IgG secondary, MFI after subtraction of the control human γ1 staining"}}, "data": [{"binder": "B1", "values": [{"measurement": "binding result", "setting": "[1]", "result": "no binding"}, {"measurement": "IC50 of inhibition of rhFasL-induced apoptosis in SKW6.4 cells (Annexin-V/PI, flow cytometry)", "setting": "[2]", "result": 0.2, "unit": "nM"}, {"measurement": "IC50 of inhibition of rhFasL-induced apoptosis in activated human T cells (Annexin-V/PI, flow cytometry)", "setting": "[2]", "result": 0.02, "unit": "nM"}, {"measurement": "share of binding capacity on Jurkat cells at which complete blocking of FasL-induced apoptosis is achieved", "setting": "[2]", "result": "≥ 12.5", "unit": "%"}, {"measurement": "Kd", "setting": "[3]", "result": 0.0411, "unit": "nM"}, {"measurement": "binding result", "setting": "[4]", "result": "no binding"}, {"measurement": "EC50 (read off the curve)", "setting": "[5]", "result": "~0.8", "unit": "mg/L"}]}]}
